B1: G1/S-specific cyclin-D1 (Mus musculus), P25322 (parent)
chain: MEHQLLCCEVETIRRAYPDTNLLNDRVLRAMLKTEETCAPSVSYFKCVQKEIVPSMRKIVATWMLEVCEEQKCEEEVFPLAMNYLDRFLSLEPLKKSRLQLLGATCMFVASKMKETIPLTAEKLCIYTDNSIRPEELLQMELLLVNKLKWNLAAMTPHDFIEHFLSKMPEADENKQTIRKHAQTFVALCATDVKFISNPPSMVAAGSVVAAMQGLNLGSPNNFLSCYRTTHFLSRVIKCDPDCLRACQEQIEALLESSLRQAQQNVDPKATEEEGEVEEEAGLACTPTDVRDVDI
partner: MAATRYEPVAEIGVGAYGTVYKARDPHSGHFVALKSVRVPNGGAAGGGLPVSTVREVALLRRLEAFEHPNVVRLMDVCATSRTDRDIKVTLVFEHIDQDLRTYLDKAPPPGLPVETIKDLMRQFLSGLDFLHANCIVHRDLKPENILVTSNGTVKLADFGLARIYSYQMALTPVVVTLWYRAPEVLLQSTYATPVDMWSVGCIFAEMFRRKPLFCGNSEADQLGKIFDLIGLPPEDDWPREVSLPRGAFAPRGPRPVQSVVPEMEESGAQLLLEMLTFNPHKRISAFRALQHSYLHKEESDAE

Variants of: B1
Conditions: with cdk4_mouse Cdk4, P30285

| effect of a mutation on the interaction | Variant |
| --- | --- |
| disrupting interaction | K114A |

Reference: IntAct's records for PubMed 17948060
